We go through two molecules from publication PMC4004530 (Circulation research, 2013).

For assay [1], the target named is Cardiac ryanodine receptor (RyR2) in rat ventricular myocytes (rat (endogenous in ventricular myocytes)) (UniProt B0LPN4). The assay can be described thus: FRET or BRET. (BRET reads energy transfer from a luciferase to a nearby fluorophore.)
Assay [2] shares this target. Put plainly: FRET or BRET. The source holds these as a separate data set.
Assay [3] concerns the target Cardiac ryanodine receptor (RyR2) in rat ventricular myocytes (rat (endogenous in ventricular myocytes), UniProt B0LPN4 1-4955). The assay can be described thus: other fluorescence titration.

Like-named read-outs stand apart in the source and are kept apart here.

Cardiac ryanodine receptor (RyR2) in rat ventricular myocytes (rat (endogenous in ventricular myocytes)), sequence (B0LPN4 whole entry): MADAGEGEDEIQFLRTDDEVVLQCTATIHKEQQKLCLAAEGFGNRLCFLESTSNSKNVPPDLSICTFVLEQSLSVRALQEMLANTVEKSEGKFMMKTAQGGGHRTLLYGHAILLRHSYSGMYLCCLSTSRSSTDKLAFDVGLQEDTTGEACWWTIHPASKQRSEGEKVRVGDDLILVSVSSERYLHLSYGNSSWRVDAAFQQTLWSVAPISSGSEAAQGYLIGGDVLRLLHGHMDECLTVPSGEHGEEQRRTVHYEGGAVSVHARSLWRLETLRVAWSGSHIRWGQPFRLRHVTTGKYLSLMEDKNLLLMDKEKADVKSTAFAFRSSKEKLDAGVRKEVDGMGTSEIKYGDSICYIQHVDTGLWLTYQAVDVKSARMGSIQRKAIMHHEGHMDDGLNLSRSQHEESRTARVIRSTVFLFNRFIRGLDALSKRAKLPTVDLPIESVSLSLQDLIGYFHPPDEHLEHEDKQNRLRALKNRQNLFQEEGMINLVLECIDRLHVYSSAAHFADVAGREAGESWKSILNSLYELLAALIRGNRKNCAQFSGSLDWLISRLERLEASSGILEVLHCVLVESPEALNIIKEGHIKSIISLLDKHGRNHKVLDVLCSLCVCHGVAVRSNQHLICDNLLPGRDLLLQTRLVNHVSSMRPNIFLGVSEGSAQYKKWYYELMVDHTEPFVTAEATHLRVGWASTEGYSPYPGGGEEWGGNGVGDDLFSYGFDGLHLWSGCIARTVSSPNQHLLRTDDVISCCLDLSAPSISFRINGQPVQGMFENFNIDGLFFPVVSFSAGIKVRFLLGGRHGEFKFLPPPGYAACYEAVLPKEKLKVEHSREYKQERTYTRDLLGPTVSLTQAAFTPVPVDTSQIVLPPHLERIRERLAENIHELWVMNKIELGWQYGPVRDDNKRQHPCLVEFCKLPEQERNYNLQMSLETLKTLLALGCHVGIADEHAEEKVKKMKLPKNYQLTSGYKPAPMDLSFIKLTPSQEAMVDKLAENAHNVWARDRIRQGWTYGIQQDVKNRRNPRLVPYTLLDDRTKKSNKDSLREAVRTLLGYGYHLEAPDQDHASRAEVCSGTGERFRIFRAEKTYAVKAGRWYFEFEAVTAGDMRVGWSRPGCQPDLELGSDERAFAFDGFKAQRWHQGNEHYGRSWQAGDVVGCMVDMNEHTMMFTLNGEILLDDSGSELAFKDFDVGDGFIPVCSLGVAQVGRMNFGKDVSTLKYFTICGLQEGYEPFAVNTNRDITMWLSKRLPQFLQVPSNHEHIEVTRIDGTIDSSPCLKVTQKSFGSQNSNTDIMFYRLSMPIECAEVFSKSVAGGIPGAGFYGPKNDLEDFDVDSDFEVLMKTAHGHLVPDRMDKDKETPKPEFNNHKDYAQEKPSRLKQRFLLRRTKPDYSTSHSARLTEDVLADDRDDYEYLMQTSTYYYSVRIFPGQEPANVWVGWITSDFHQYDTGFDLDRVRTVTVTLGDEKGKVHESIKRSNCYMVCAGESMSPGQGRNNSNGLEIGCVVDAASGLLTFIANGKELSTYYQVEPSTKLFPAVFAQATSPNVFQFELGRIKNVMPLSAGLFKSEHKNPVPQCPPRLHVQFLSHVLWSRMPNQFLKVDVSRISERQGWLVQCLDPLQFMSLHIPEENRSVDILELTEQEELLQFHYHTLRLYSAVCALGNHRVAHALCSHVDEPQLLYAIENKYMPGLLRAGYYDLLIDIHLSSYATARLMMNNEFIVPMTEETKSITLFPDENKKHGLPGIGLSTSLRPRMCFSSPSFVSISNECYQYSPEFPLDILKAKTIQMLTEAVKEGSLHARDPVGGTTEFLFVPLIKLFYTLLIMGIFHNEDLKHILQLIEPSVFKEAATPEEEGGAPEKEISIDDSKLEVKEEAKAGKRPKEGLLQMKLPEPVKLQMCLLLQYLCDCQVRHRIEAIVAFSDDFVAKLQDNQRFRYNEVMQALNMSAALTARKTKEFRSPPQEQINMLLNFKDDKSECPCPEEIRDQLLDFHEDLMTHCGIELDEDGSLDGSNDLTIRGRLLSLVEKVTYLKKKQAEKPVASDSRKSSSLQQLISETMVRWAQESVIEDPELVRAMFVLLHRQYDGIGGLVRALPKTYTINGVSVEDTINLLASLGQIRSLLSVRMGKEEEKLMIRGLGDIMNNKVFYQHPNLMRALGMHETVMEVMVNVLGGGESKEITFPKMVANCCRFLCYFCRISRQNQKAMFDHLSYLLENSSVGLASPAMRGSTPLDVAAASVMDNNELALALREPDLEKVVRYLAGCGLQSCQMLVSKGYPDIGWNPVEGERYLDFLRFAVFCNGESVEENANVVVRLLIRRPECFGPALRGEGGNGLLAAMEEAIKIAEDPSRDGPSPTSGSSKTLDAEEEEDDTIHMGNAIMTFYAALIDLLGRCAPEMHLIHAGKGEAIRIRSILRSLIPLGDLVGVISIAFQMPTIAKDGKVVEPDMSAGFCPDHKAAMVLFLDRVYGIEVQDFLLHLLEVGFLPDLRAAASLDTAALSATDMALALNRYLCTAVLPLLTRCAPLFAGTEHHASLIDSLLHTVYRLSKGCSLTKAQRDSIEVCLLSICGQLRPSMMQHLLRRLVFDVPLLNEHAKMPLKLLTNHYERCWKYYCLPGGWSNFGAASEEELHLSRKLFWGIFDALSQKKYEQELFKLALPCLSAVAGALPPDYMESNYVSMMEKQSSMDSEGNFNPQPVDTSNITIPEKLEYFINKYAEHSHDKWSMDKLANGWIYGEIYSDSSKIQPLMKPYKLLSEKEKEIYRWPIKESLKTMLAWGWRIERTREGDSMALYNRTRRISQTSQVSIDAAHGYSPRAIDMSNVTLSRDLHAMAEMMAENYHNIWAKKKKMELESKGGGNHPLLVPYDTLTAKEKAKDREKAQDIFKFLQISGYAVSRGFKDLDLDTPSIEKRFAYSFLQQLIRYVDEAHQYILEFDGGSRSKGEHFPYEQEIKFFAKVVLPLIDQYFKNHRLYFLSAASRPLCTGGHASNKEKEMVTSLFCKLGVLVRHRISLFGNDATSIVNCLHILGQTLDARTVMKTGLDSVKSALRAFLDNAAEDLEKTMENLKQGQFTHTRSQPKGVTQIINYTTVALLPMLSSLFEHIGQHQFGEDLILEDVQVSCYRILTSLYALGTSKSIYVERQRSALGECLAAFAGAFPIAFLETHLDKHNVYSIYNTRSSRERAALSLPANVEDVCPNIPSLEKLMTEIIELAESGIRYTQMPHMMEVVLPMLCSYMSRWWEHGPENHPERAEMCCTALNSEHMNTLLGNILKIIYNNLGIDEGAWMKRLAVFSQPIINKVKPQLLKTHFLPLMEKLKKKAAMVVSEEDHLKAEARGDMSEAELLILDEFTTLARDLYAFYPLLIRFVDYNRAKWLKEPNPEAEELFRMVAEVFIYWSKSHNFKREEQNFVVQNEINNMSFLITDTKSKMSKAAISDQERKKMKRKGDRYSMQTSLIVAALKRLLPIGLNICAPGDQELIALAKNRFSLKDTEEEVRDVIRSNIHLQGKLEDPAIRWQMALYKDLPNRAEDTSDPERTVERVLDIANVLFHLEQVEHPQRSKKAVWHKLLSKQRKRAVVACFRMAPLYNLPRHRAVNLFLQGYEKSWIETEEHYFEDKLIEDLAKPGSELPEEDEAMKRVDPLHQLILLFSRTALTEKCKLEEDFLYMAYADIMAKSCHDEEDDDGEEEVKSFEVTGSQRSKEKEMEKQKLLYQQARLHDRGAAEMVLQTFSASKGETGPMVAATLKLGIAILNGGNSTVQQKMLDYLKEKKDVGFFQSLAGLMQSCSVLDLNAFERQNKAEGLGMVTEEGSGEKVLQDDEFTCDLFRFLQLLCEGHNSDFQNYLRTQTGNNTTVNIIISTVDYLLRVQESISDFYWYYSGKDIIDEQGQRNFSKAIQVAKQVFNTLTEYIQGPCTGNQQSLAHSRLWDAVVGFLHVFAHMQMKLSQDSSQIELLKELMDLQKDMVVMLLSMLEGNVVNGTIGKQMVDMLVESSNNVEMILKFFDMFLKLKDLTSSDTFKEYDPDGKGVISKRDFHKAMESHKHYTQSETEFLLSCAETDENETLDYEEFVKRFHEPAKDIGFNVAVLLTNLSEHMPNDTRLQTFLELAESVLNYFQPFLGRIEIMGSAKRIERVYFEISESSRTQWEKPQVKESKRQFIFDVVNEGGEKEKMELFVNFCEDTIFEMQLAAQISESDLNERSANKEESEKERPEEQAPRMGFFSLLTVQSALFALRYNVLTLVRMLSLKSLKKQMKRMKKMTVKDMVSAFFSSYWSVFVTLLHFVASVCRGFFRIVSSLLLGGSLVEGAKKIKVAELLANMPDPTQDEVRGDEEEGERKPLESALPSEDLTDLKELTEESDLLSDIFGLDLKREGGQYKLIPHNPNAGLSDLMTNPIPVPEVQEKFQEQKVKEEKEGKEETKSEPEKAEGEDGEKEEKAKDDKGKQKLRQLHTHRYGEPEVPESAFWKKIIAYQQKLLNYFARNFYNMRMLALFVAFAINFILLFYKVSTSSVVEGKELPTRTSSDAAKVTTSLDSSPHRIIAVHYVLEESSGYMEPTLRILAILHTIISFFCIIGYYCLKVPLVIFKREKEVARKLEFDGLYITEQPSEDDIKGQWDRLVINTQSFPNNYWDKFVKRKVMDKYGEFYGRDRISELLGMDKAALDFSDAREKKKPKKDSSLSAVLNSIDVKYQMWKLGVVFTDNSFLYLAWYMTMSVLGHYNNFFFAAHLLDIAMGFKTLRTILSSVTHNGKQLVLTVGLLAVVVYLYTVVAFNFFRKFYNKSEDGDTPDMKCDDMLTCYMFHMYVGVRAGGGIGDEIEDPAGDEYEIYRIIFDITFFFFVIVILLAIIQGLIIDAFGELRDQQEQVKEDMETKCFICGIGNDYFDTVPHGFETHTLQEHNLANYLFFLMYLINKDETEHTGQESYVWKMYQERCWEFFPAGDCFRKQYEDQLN
Cardiac ryanodine receptor (RyR2) in rat ventricular myocytes, sequence (B0LPN4 whole entry): as above

By Kd is commonly meant the concentration at which binding is half-saturated. A lower Kd goes with a tighter complex. For “Fluorescent calmodulin (CaM labeled with Alexa Fluor 568) (from UniProt P0DP23 1-149) (natural protein)”, the Kd was 10 nM in assay [1] and 12 nM in assay [2].

B1: Fluorescent FKBP12.6 (FK506 binding protein 12.6 labeled with Alexa Fluor 488) (natural protein)
chain: MGVEIETISPGDGRCFPKKGQTAVVHYTGMLQNGKKFDSSRDRNKPFKFRIGKQEVIKGFEEGAAQMSLGQRAKLTITPDVAYGATGHPGVIPPNATLIFDVELLNLE
modifications: Alexa Fluor 488 label (site not stated)
B1: binding in assay [3] was characterised by a dissociation constant (Kd) of 0.8 ± 0.1 nM.
